According to patent US9556249B2, “Neuregulin antagonists and use thereof in treating cancer” (Genentech, Inc., priority 2010, dated 2017):

Experiments:
[1] = tested on: LSL-K-ras^G12D; p53^Fl/+ lung tumors; test: LSL-K-ras G12D; p53 Fl/+ lung tumor model, micro-CT tumor burden; type: in vivo, mice
[2] = tested on: LSL-K-ras^G12D lung tumors; test: LSL-K-ras G12D x Z/EG mouse NSCLC model, FACS of GFP-positive tumor cells; type: in vivo; details: one week after final dose of cisplatin, vs vehicle controls
Procedure: In addition, the LSL-K-ras^G12D genetically engineered mouse model of NSCLC (Jackson et al., 2001) was crossed to the Z/EG Cre-reporter strain (Novak et al., 2000) and used in this study. Cisplatin (7 mg/kg i.p. every 7 days for 3 doses) was started 12 weeks after AdenoCre infection of the lungs (ie. tumor initiation). Lungs were collected 1 week after the last dose of chemotherapy and tumor cells were isolated by FACS after enzymatic digestion and dissociation. […] FIG. 2D (data presented as the average number of GFP positive cells per lung±SEM, n=6/group).

[3] = tested on: LSL-K-ras^G12D lung tumors; details: LSL-K-ras^G12D mice (Oliver et al., 2010); cited from earlier work
[4] = tested on: KPL4; test: KPL4-GFP orthotopic breast cancer model, response to chemotherapy; type: in vivo, SCID/beiz mice; details: following completion of chemotherapy regimen; tumors subsequently recurred
Procedure: Several cancer models that show significant regression in response to chemotherapy followed by tumor relapse after the cessation of therapy (FIG. 1) were generated and used to study the cells that are responsible for tumor re-initiation. These cells are tumor reinitiating cells (TRICs). In order to generate the models, GFP labeled human tumor cells were transplanted subcutaneously, and when tumor size reached ˜200 mm^3, mice were treated with either vehicle or chemotherapy as shown in the respective models. GFP+ tumor cells were isolated from regressed or vehicle treated tumors by FACS-sorting after enzymatic digestion and dissociation. Tumors were collected a minimum of one week after the last dose of chemotherapy and before the resumption of tumor growth.
GFP-expressing sublines of the human breast cancer cell line KPL4 were transplanted orthotropically to the mammary fat pad of SCID/beiz mice. For the KPL4 model, chemotherapy consisted of Paclitaxel (20 mg/kg, i.v. every other day for 5 doses). FIG. 2C (data presented as mean tumor volume±SEM, n=12 mice/group).

[5] = tested on: NRG1/HER3 signaling; test: HER4-ECD added to serum starved LKPH1 and LKPH2 cells, Western blotting; type: cell-based, mouse; details: HER4ECD 2 mg/ml, 48 hours
[6] = tested on: LSL-K-ras^G12D; p53^Fl/Fl lung tumors; test: LSL-K-ras G12D; p53 Fl/Fl lung tumor model, micro-CT tumor burden; type: in vivo, mice
[7] = tested on: H441 cells; test: Exogenous NRG1 stimulation of serum starved H441 cells, Western blotting; type: cell-based, human; details: 1 uM NRG1, ten minutes
[8] = tested on: H1299-shNRG1.2; test: H1299-shNRG1.2 in vivo study; details: magnitude of growth inhibition smaller than with shNRG1
[9] = tested on: NRG1 mRNA; test: NRG1 mRNA levels in H1299 subline expressing shNRG1.2; type: cell-based, human; details: compared with shNRG1
[10] = tested on: Calu3-shHER3 xenograft tumors; test: Calu3-shHER3 xenograft tumor growth; type: in vivo, mice; details: dox treatment; vs sucrose TDT=11 days
[11] = tested on: HER3; test: HER3 knockdown in Calu3-shHER3 cells, qPCR and Western blot; type: cell-based, human
[12] = tested on: Calu3-shHer4 xenograft tumors; test: Calu3-shHER4 xenograft tumor growth; type: in vivo, mice; details: dox vs sucrose
[13] = tested on: HER4; test: HER4 knockdown in Calu3-shHER4 cells, qPCR; type: cell-based, human; details: dox 2 ug/ml

For N.N.[Cl][Pt][Cl] [cisplatin], the “average tumor burden at conclusion of study and overall tumor growth rate vs vehicle” value ([1]; cisplatin+control IgG2A) is given as “not significantly different”, the “number of GFP-positive tumor cells per lung” value [2] is given as “significant decrease in tumor cell number” and the survival [3] is given as “does not result in prolonged survival”.

In the case of CC(=O)O[C@H]1C(=O)[C@@]2(C)[C@H]([C@H](OC(=O)c3ccccc3)[C@]3(O)C[C@H](OC(=O)[C@H](O)[C@@H](NC(=O)c4ccccc4)c4ccccc4)C(C)=C1C3(C)C)[C@]1(OC(C)=O)CO[C@@H]1C[C@@H]2O [Paclitaxel], the “tumor size vs vehicle-treated mice” value [4] is reported as “significantly smaller”.

In the case of “HER4-ECD: fusion of the human HER4 extracellular domain to murine IgG2A Fc; ligand trap to sequester NRG1”, the p-HER3 levels [5] is reported as “diminished”, the “tumor growth (average tumor burden and tumor growth rate)” value ([1]; cisplatin+HER4-ECD combination) is reported as “significant inhibition of tumor growth” and the “effect on tumor growth” value ([6]; HER4-ECD treatment alone) is reported as “no effect”. The “tumor burden by micro-CT” value ([6]; day 28, cisplatin+HER4-ECD vs cisplatin+vehicle and all other groups) was “significant reduction in tumor burden”.

B1: NRG1: recombinant human NRG1 beta-1 extracellular domain (R&D systems), exogenous ligand (protein, UniProt Q02297 20-242, looked up)
extracellular domain: SGKKPESAAGSQSPALPPRLKEMKSQESAAGSKLVLRCETSSEYSSLRFKWFKNGNELNRKNKPQNIKIQKKPGKSELRINKASLADSGEYMCKVISKLGNDSASANITIVESNEIITGMPASTEGAYVSSESPIRISVSTEGANTSSSTSTSTTGTSHLVKCAEKEKTFCVNGGECFMVKDLSNPSRYLCKCQPGFTGARCTENVPMKVQNQEKAEELYQKR
modifications: extracellular domain
notes: recombinant human NRG1 beta-1 extracellular domain (R&D systems), exogenous ligand
In the case of B1, the “levels of p-Stat3 or p-Mek1/2” value [7] is reported as “no detectable changes” and the “p-HER3 and p-AKT” value [7] is reported as “increase”.

B2: shNRG1.2: a different doxycycline-inducible shRNA to NRG1 (SEQ ID NO: 3 and 4) (nucleic acid)
chain 1: GATCCCCGAGTATATGTGCAAAGTGATTCAAGAGATCACTTTGCACATATACTCTTTTTTGGAAA
chain 2: AGCTTTTCCAAAAAAGAGTATATGTGCAAAGTGATCTCTTGAATCACTTTGCACATATACTCGGG
For B2, the “response to chemotherapy upon NRG1 knockdown” value [8] was “enhanced response to chemotherapy” and the “reduction in NRG1 mRNA levels” value [9] was “more modest reduction”.

B3: shHER3: dox-inducible shRNA to HER3 (SEQ ID NO: 7 and 8) (nucleic acid)
chain 1: GATCCCCAAGAGGATGTCAACGGTTATTCAAGAGATAACCGTTGACATCCTCTTTTTTTTGGAAA
chain 2: AGCTTTTCCAAAAAAAAGAGGATGTCAACGGTTATCTCTTGAATAACCGTTGACATCCTCTTGGG
In the case of B3, the “time to doubling (TDT)” value [10] is reported as 19 days, the HER3 transcript levels ([11]; dox 2 ug/ml, qPCR) is reported as “decreased” and the “extent of p-AKT down-regulation” value ([11]; in the presence of dox, compared with Calu3-shHER4) is reported as “much greater”.

B4: shHER4: dox-inducible shRNA to HER4 (SEQ ID NO: 5 and 6) (nucleic acid)
chain 1: GATCCCCGATCACAACTGCTGCTTAATTCAAGAGATTAAGCAGCAGTTGTGATCTTTTTTGGAAA
chain 2: AGCTTTTCCAAAAAAGATCACAACTGCTGCTTAATCTCTTGAATTAAGCAGCAGTTGTGATCGGG
In the case of B4, the “inhibition of tumor growth” value [12] is reported as “not a notable inhibition of tumor growth” and the HER4 transcript levels [13] is reported as “decreased”.
